Results taken from patent US20180246086A1.

Biological target: Hapten-1-BSA, a general complete antigen of type I pyrethroid (bovine) (UniProt P02769)
Experiment: indirect non-competitive ELISA, plate coated with Hapten-1-BSA at 2.0, 1.0, 0.5 and 0.25 µg/mL, antibody titrated

Hapten-1-BSA, a general complete antigen of type I pyrethroid (bovine), sequence (P02769 25-607 limits assumed, form in doubt): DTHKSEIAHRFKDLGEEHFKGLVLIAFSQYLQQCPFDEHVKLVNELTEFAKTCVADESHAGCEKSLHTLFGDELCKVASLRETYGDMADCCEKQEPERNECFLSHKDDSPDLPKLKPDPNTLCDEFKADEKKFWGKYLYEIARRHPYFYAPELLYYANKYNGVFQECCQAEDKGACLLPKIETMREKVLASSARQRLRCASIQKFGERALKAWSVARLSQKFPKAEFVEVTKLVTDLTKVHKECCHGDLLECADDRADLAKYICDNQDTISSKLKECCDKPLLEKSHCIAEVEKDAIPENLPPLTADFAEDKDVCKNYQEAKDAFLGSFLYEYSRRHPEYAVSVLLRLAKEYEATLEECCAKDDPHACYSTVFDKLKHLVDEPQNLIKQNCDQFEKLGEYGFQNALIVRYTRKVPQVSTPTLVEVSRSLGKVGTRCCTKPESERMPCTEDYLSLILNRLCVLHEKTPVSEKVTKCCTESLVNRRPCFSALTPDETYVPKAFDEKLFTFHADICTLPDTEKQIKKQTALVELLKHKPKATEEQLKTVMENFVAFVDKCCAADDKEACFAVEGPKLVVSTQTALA

B1: universal monoclonal antibody against type I pyrethroid secreted by hybridoma cell line QW8# (antibody, IgG2a, V domains shown)
VH: QVTLKESGPGILQPSQTLSLTCSFSGFSLSTYGIGIGWIRQSSGRGLEWLAHIWWNDNRYYNIALKSRLTISKDASNNQFFLKLASVDTADIATYYCVRGYGRPFYAMDYWGQGTTVTVSS
VL: QAVVTQESALTTSPGETVTLTCRSSTGAVTTSNYVNWVQEKPDHLFTGLIGGTNNRGPGVPARFSGSLIGDKAALTITGTQTEDEAIYFCALWYSNHWVFGGGTKLTVL
**Q.** For B1, which Ka is on record?
**A.** 2.16e+08 M⁻¹
